In ChEMBL document CHEMBL1212722, “Designer enzymes for glycosphingolipid synthesis by directed evolution” (Nat Chem Biol, 2009):
Where a chain is given by its changes, count along the chain named. Names may count otherwise.

Experiments:
[1] = Inhibition of Rhodococcus sp. M777 Endoglycoceramidase 2 containing wild type sequence E351S
[2] = system: Rhodococcus sp.; assay: Ratio of Kcat to Km of Activity of Rhodococcus sp. M777 Endoglycoceramidase 2 containing wild type sequence E351S
[3] = system: Rhodococcus sp.; assay: Activity of Rhodococcus sp. M777 Endoglycoceramidase 2 containing wild type sequence E351S
[4] = substrate: CCCCCCCCCCCCCC[C@@H](O)[C@@H](O)[C@@H](N)CO; assay: Ratio of Kcat to Km of Activity of Rhodococcus sp. M777 Endoglycoceramidase 2 V101M K200R mutant
[5] = substrate: CCCCCCCCCCCCCC[C@@H](O)[C@@H](O)[C@@H](N)CO; assay: Ratio of Kcat to Km of Activity of Rhodococcus sp. M777 Endoglycoceramidase 2 K129N mutant
[6] = substrate: CCCCCCCCCCCCCC[C@@H](O)[C@@H](O)[C@@H](N)CO; assay: Ratio of Kcat to Km of Activity of Rhodococcus sp. M777 Endoglycoceramidase 2 N148S mutant
[7] = substrate: CC(=O)N[C@H]1[C@H](O[C@@H]2[C@H](O[C@]3(C(=O)O)C[C@H](O)[C@@H](NC(C)=O)[C@H]([C@@H](O)[C@@H](O)CO)O3)[C@@H](O)[C@H](O[C@H]3[C@H](O)[C@@H](O)[C@@H](F)O[C@@H]3CO)O[C@@H]2CO)O[C@H](CO)[C@H](O)[C@@H]1O[C@@H]1O[C@H](CO)[C@H](O)[C@H](O)[C@H]1O; assay: (§1) Ratio of Kcat to Km of Activity of Rhodococcus sp. M777 Endoglycoceramidase 2 A81E mutant
[8] = substrate: CCCCCCCCCCCCC/C=C/[C@@H](O)[C@@H](N)CO; assay: as §1
[9] = substrate: CC(=O)N[C@H]1[C@H](O[C@@H]2[C@H](O[C@]3(C(=O)O)C[C@H](O)[C@@H](NC(C)=O)[C@H]([C@@H](O)[C@@H](O)CO)O3)[C@@H](O)[C@H](O[C@H]3[C@H](O)[C@@H](O)[C@@H](F)O[C@@H]3CO)O[C@@H]2CO)O[C@H](CO)[C@H](O)[C@@H]1O[C@@H]1O[C@H](CO)[C@H](O)[C@H](O)[C@H]1O; assay: (§2) Activity of Rhodococcus sp. M777 Endoglycoceramidase 2 A81E mutant
[10] = substrate: CCCCCCCCCCCCC/C=C/[C@@H](O)[C@@H](N)CO; assay: as §2
[11] = substrate: CC(=O)N[C@H]1[C@H](O[C@@H]2[C@H](O[C@]3(C(=O)O)C[C@H](O)[C@@H](NC(C)=O)[C@H]([C@@H](O)[C@@H](O)CO)O3)[C@@H](O)[C@H](O[C@H]3[C@H](O)[C@@H](O)[C@@H](F)O[C@@H]3CO)O[C@@H]2CO)O[C@H](CO)[C@H](O)[C@@H]1O[C@@H]1O[C@H](CO)[C@H](O)[C@H](O)[C@H]1O; assay: (§3) Activity of Rhodococcus sp. M777 Endoglycoceramidase 2 A153T mutant
[12] = substrate: CCCCCCCCCCCCC/C=C/[C@@H](O)[C@@H](N)CO; assay: as §3
[13] = substrate: CC(=O)N[C@H]1[C@H](O[C@@H]2[C@H](O[C@]3(C(=O)O)C[C@H](O)[C@@H](NC(C)=O)[C@H]([C@@H](O)[C@@H](O)CO)O3)[C@@H](O)[C@H](O[C@H]3[C@H](O)[C@@H](O)[C@@H](F)O[C@@H]3CO)O[C@@H]2CO)O[C@H](CO)[C@H](O)[C@@H]1O[C@@H]1O[C@H](CO)[C@H](O)[C@H](O)[C@H]1O; assay: (§4) Ratio of Kcat to Km of Activity of Rhodococcus sp. M777 Endoglycoceramidase 2 A153T mutant
[14] = substrate: CCCCCCCCCCCCC/C=C/[C@@H](O)[C@@H](N)CO; assay: as §4
[15] = substrate: CC(=O)N[C@H]1[C@H](O[C@@H]2[C@H](O[C@]3(C(=O)O)C[C@H](O)[C@@H](NC(C)=O)[C@H]([C@@H](O)[C@@H](O)CO)O3)[C@@H](O)[C@H](O[C@H]3[C@H](O)[C@@H](O)[C@@H](F)O[C@@H]3CO)O[C@@H]2CO)O[C@H](CO)[C@H](O)[C@@H]1O[C@@H]1O[C@H](CO)[C@H](O)[C@H](O)[C@H]1O; assay: (§5) Ratio of Kcat to Km of Activity of Rhodococcus sp. M777 Endoglycoceramidase 2 R177H mutant
[16] = substrate: CCCCCCCCCCCCC/C=C/[C@@H](O)[C@@H](N)CO; assay: as §5
[17] = substrate: CC(=O)N[C@H]1[C@H](O[C@@H]2[C@H](O[C@]3(C(=O)O)C[C@H](O)[C@@H](NC(C)=O)[C@H]([C@@H](O)[C@@H](O)CO)O3)[C@@H](O)[C@H](O[C@H]3[C@H](O)[C@@H](O)[C@@H](F)O[C@@H]3CO)O[C@@H]2CO)O[C@H](CO)[C@H](O)[C@@H]1O[C@@H]1O[C@H](CO)[C@H](O)[C@H](O)[C@H]1O; assay: (§6) Activity of Rhodococcus sp. M777 Endoglycoceramidase 2 R177H mutant
[18] = substrate: CCCCCCCCCCCCC/C=C/[C@@H](O)[C@@H](N)CO; assay: as §6
[19] = substrate: CC(=O)N[C@H]1[C@H](O[C@@H]2[C@H](O[C@]3(C(=O)O)C[C@H](O)[C@@H](NC(C)=O)[C@H]([C@@H](O)[C@@H](O)CO)O3)[C@@H](O)[C@H](O[C@H]3[C@H](O)[C@@H](O)[C@@H](F)O[C@@H]3CO)O[C@@H]2CO)O[C@H](CO)[C@H](O)[C@@H]1O[C@@H]1O[C@H](CO)[C@H](O)[C@H](O)[C@H]1O; assay: (§7) Ratio of Kcat to Km of Activity of Rhodococcus sp. M777 Endoglycoceramidase 2 I183F mutant
[20] = substrate: CCCCCCCCCCCCC/C=C/[C@@H](O)[C@@H](N)CO; assay: as §7
[21] = substrate: CC(=O)N[C@H]1[C@H](O[C@@H]2[C@H](O[C@]3(C(=O)O)C[C@H](O)[C@@H](NC(C)=O)[C@H]([C@@H](O)[C@@H](O)CO)O3)[C@@H](O)[C@H](O[C@H]3[C@H](O)[C@@H](O)[C@@H](F)O[C@@H]3CO)O[C@@H]2CO)O[C@H](CO)[C@H](O)[C@@H]1O[C@@H]1O[C@H](CO)[C@H](O)[C@H](O)[C@H]1O; assay: (§8) Activity of Rhodococcus sp. M777 Endoglycoceramidase 2 I183F mutant
[22] = substrate: CCCCCCCCCCCCC/C=C/[C@@H](O)[C@@H](N)CO; assay: as §8

CCCCCCCCCCCCCC[C@@H](O)[C@@H](O)[C@@H](N)CO [PHYTOSPHINGOSINE]
Ki [1]: 850 µM

CC(=O)N[C@H]1[C@H](O[C@@H]2[C@H](O[C@]3(C(=O)O)C[C@H](O)[C@@H](NC(C)=O)[C@H]([C@@H](O)[C@@H](O)CO)O3)[C@@H](O)[C@H](O[C@H]3[C@H](O)[C@@H](O)[C@@H](F)O[C@@H]3CO)O[C@@H]2CO)O[C@H](CO)[C@H](O)[C@@H]1O[C@@H]1O[C@H](CO)[C@H](O)[C@H](O)[C@H]1O
kcat/Km [2]: 273 M⁻¹ s⁻¹ | Km [3]: 770 µM | kcat [3]: 0.21 s⁻¹

CCCCCCCCCCCCC/C=C/[C@@H](O)[C@@H](N)CO
kcat/Km [2]: 463 M⁻¹ s⁻¹ | Km [3]: 410 µM | kcat [3]: 0.19 s⁻¹

B1: Endoglycoceramidase II (Rhodococcus sp), A0ACD6B832 V101M,K200R (protein)
chain: MRRTRLVSLIVTGSLVFGGGVAAAQSSLAASGSGSGSGTALTPSYLKDDDGRSLILRGFNTASSAKSAPDGMPQFTEADLAREYADMGTNFVRFLISWRSMEPAPGVYDQQYLDRVEDRVGWYAERGYKVMLDMHQDVYSGAITPEGNSGNGAGAIGNGAPAWATYMDGLPVEPQPRWELYYIQPGVMRAFDNFWNTTGRHPELVEHYAKAWRAVADRFADNDAVVAYDLMNEPFGGSLQGPAFEAGPLAAMYQRTTDAIRQVDQDTWVCVAPQAIGVNQGLPSGLTKIDDPRAGQQRIAYCPHLYPLPLDIGDGHEGLARTLTDVTIDAWRANTAHTARVLGDVPIILGEFGLDTTLPGARDYIERVYGTAREMGAGVSYWSSDPGPWGPYLPDGTQTLLVDTLNKPYPRAVAGTPTEWSSTSDRLQLTIEPDAAITAPTEIYLPEAGFPGDVHVEGADVVGWDRQSRLLTVRTPADSGNVTVTVTPAA
kcat/Km [4]: 3.1 M⁻¹ s⁻¹

B2: Endoglycoceramidase II (Rhodococcus sp), A0ACD6B832 K129N (protein)
chain: B1 chain with M101V, K129N, R200K
kcat/Km [5]: 3.1 M⁻¹ s⁻¹

B3: Endoglycoceramidase II (Rhodococcus sp), A0ACD6B832 N148S (protein)
chain: B1 chain with M101V, N148S, R200K
kcat/Km [6]: 2.1 M⁻¹ s⁻¹

B4: Endoglycoceramidase II (Rhodococcus sp), A0ACD6B832 A81E (protein)
chain: B1 chain with A81E, M101V, R200K
kcat/Km [7]: 123 M⁻¹ s⁻¹ | kcat/Km [8]: 600 M⁻¹ s⁻¹ | Km [9]: 970 µM | kcat [9]: 0.12 s⁻¹ | Km [10]: 200 µM | kcat [10]: 0.12 s⁻¹

B5: Endoglycoceramidase II (Rhodococcus sp), A0ACD6B832 A153T (protein)
chain: B1 chain with M101V, A153T, R200K
Km [11]: 420 µM | kcat [11]: 0.17 s⁻¹ | Km [12]: 460 µM | kcat [12]: 0.2 s⁻¹ | kcat/Km [13]: 405 M⁻¹ s⁻¹ | kcat/Km [14]: 435 M⁻¹ s⁻¹

B6: Endoglycoceramidase II (Rhodococcus sp), A0ACD6B832 R177H (protein)
chain: B1 chain with M101V, R177H, R200K
kcat/Km [15]: 188 M⁻¹ s⁻¹ | kcat/Km [16]: 353 M⁻¹ s⁻¹ | Km [17]: 320 µM | kcat [17]: 0.06 s⁻¹ | Km [18]: 170 µM | kcat [18]: 0.06 s⁻¹

B7: Endoglycoceramidase II (Rhodococcus sp), A0ACD6B832 I183F (protein)
chain: B1 chain with M101V, I183F, R200K
kcat/Km [19]: 135 M⁻¹ s⁻¹ | kcat/Km [20]: 527 M⁻¹ s⁻¹ | Km [21]: 180 µM | kcat [21]: 0.02 s⁻¹ | Km [22]: 180 µM | kcat [22]: 0.09 s⁻¹
